Laboratory results as given in publication PMC4633670, “Structural Characterization of a Newly Identified Component of α-Carboxysomes: The AAA+ Domain Protein CsoCbbQ” (Scientific Reports, 2015).

T1: N-terminal histidine-tagged CsoCbbO (Hneap_0910) (Halothiobacillus neapolitanus, UniProt D0KZ80 1-788)
T1 construct: CsoCbbO, cso-associated CbbO of Halothiobacillus neapolitanus, locus tag Hneap_0910; 788 amino acids, VWA domain in its C-terminus; amplified from genomic DNA with primers from the ATG to the stop codon; Cloned into the BamHI and HindIII sites of pETDuet-1; It was insoluble when expressed alone in E. coli; also called HT-CbbO; hisCsoCbbO; not shown: His6, N-terminal, kept
T1 sequence (looked up): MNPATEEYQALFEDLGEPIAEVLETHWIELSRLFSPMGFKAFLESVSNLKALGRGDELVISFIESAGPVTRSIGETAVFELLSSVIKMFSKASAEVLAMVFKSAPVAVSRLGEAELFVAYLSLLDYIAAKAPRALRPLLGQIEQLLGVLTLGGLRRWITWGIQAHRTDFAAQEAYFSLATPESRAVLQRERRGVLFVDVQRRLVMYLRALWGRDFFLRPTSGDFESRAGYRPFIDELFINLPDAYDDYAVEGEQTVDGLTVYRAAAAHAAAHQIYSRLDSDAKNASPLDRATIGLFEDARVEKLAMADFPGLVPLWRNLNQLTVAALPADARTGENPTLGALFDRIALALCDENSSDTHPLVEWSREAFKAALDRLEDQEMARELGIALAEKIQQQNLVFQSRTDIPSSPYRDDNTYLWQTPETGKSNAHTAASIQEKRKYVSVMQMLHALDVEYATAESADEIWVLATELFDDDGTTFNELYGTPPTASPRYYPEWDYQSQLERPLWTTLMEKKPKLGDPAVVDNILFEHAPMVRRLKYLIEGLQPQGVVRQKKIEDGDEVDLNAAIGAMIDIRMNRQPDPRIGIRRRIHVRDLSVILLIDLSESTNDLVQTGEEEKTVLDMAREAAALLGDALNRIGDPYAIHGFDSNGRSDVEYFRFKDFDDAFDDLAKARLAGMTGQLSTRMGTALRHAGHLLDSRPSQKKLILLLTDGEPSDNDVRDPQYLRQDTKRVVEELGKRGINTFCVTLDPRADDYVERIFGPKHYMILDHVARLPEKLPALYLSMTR


Columns and labels:
[1] = target: Hexa-histidine-tagged H. nea CsoCbbQ (Hneap_0905) (Halothiobacillus neapolitanus); experiment: SEC; size exclusion data of recombinant CsoCbbQ (Supplementary Fig. 2); conditions not shown
[2] = target: Hexa-histidine-tagged H. nea CsoCbbQ (Hneap_0905) (Halothiobacillus neapolitanus); experiment: crystal structure; His6-tagged CsoCbbQ crystallised with ATP in the mother liquor, ADP bound; 22 C, 0.1 M HEPES pH 7.5, 6% PEG-8000, 8% ethylene glycol; two molecules per asymmetric unit, hexamer by crystal symmetry
[3] = target: T1, N-terminal histidine-tagged CsoCbbO …; experiment: SEC; purified CsoCbbO/Q complex on Superdex 200 10/300 GL; 10 mM Tris-HCl pH 8.0, 100 mM NaCl, 0.25 ml/min; mass estimated against protein standards; settings: both partners purified
[4] = target: the molecule itself; experiment: as above

stoichiometry N [1] | stoichiometry N [2] | stoichiometry N [3] | Molecule | stoichiometry N [4]
6 | 6 |  | Hexa-histidine-tagged H. nea CsoCbbQ (Hneap_0905) (enzyme) | 
 |  | ~6 | non-His6-tagged CsoCbbQ (NT-CbbQ) (enzyme, Halothiobacillus neapolitanus, UniProt D0KZ75 1-267, looked up, CsoCbbQ of Halothiobacillus neapolitanus, locus tag Hneap_0905) MTQNADQYRVRKEPYYRAVQDEIELYRAGYEARIPMMLKGPTGCGKSRFVEHMAWKLNRPLITIACNEDMTASDLVGRYLLDKDGTRWQDGPLTVAARIGAICYLDEIVEARQDTIVVIHPLTDHRRVLPLEKKGELVEAHPDFQIVISYNPGYQSLMKDLKQSTKQRFGALDFDYPKPDIEAEIVSHEAGVDKDTAEKLVQIAQKARNLKGHGLDEGLSTRLLVYAGKLIAKGVDARAACTMTLVNPITDDVDMRDALDTVVKTFF | ~6
